Key:
[1] = target: T1, canine PD-L1 extracellular domain-human IgG1 Fc fusion protein (canine); assay: cell-based ELISA (CELISA): mAb pre-incubated with cPD-L1-hFc, then added to CHO cells expressing canine PD-1; bound cPD-L1-hFc detected with anti-human Fc-HRP, OD 450-620 nm; blocked partner: canine PD-1
T1 construct: Expressed in HEK 293 cells and purified on Protein A; also called canine PD-L1-hFc fusion protein; cPD-L1-hFc
Experimental: Ligand blockade was confirmed using this assay in conjunction with canine PD-L1/h Fec protein as follows: [0233] 1. Seed cPD-1 CHO cells in 96-well plates and grow the cells to 95-100% confluent. [0234] General guidelines for plating CHO cells, [0235] on day −3: […] (1×10⁵c/mL) [0236] −2: 2×10⁴ c/well ([…]) [0237] −1: 4×10⁴ c/well (4×10⁵ c/mL) [0238] 2. 3-fold dilute anti-cPDL1 mAbs in CHO media, starting at 30 μg/mL, 100 μL/well. Add cPD-L1-hFc to 4 μg/ml in CHO media, 100 μL/well, co-incubate in a dilution plate at 37° C., 5% CO₂ with shaking for 60 min. [0239] 3. Aspirate cell culture media from the cell coated plates, wash the plates 3×PBS+0.05% Tween20 and 1×CHO media. [0240] 4. Add the co-incubated cPD-L1 mAbs/PD-L1 Fc from the dilution plate to the cell coated plate. 100 uL/well. Incubate at 37° C., 5% CO₂ with shaking for 60 min. [0241] 5. Wash the plates 6×PBS+0.05% Tween 20 (using manual wash protocol). [0242] 6. Add Anti-Human Fc-HRP (Calbiochem) (1:2500) in CHO media, 100 ul/well, incubate 30-60 min at 37° C./5% CO₂. [0243] 7. Wash the plates 5×PBS+0.05% Tween20 (using manual wash protocol). [0244] 8. Add 100 μl/well TMB mircowell substrate. Incubate at room temp for 10 minutes. Use one step substrate from Pierce. [0245] 9. Stop with 100 μl/well 1.5M Phosphoric acid. [0246] 10. Measure A450-A620 on the ELISA reader.

[2] = target: T1, canine PD-L1 extracellular domain-human …; assay: ELISA, plate coated with canine PD-L1-hFc, two-fold dilutions of mAb, detection with HRP goat anti-mouse IgG, OD 650/490
Experimental: Hybridoma cells in the cell chamber were expanded to approximately 2.5×10⁷ cells/mL over 3-7 days. Then, 10 mL of cell suspension was harvested from the cell chamber and replaced with fresh media to allow for re-expansion of cells and subsequent harvests. This procedure was repeated as necessary to obtain adequate amounts of mAb from each hybridoma clone. Harvested cell suspensions were centrifuged and the supernatants were filtered through 0.2 micron filter membranes. For antibody purification, each clone's supernatant was purified using a Protein G Sepharose 4 Fast flow 5 mL column (GE Healthcare) by gravity flow. After washing with Tris-EDTA (TE) buffer pH 8.0, bound antibodies were eluted using 0.1 M glycine buffer, pH 2.7, followed by pH neutralization using 1 M Tris, pH 8.0. Antibodies were concentrated and buffer exchanged into phosphate-buffered saline (PBS) using Centriprep YM-10.10 kDa NMWL centrifugal filter units (Millipore). Antibody concentrations were quantified using spectrophotometry. […] The color reaction is allowed to develop for 5-20 minutes at 37° C. prior to measuring absorbance at 650 nm.

T1 sequence (chain, as listed by the source limits assumed): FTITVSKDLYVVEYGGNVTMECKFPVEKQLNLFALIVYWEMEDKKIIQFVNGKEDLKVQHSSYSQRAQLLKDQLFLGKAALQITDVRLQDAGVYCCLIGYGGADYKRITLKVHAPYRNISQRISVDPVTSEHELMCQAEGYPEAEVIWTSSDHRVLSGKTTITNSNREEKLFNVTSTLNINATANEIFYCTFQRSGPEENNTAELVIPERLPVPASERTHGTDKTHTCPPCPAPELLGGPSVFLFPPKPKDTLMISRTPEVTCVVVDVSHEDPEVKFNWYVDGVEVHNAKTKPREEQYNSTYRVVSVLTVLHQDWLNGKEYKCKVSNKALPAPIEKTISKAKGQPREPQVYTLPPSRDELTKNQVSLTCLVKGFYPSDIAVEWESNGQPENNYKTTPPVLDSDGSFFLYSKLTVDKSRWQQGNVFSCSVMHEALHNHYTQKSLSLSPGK

Binder | IC50 (read off the curve) [1] [nM] | binding result [2]
mouse anti-canine PD-L1 monoclonal antibody 4F9 (antibody, V domains shown, also called mAb 4F9) VH: EVQLVESGGGLVKPGGSLKLSCAASGFTFSSYAMSWVRQTPDKRLEWVATISDGGSYTHYPDNLMGRFTISRDNAKNNLYLQMSHLKSDDTAMYYCARESYDGYYVANWGQGTLVTVSA VL: DIVLTQSPATLSVNPGDSVSLSCRASQSISNNLHWYQQKSHESPRLLIKYASQSISGIPSRFSGSGSGTDFTLSINSVETEDFGMYFCQQSNSWPQTFGGGTKLEIK | ~20 | 
mouse anti-canine PD-L1 monoclonal antibody 5F12 (antibody, V domains shown, also called mAb 5F12; Anti-PDL-1 5F12) VH: QVQLQQSGPELVKPGASVKISCKASGYTFTDYYMNWVKQRPGQGLEWIGWIFPGSGATYYNERFMGKATLTVDKSSNTAYMLFSSLTSEDSAVYFCLRSDWDVGDFWGQGTTLTVSS VL: DIVMTQAAFSNPVTLGTSASISCRSSRSLLHTNGITYLSWFLQKPGQSPQLLIYQMSNLASGVPDRFSSSGSGTDFTLRISRVEAEDVGIYYCAQTLGLPRTFGGGTKLEIK |  | binds
